For this assay, the target named is human eIF4A1, full-length (human, UniProt P60842 1-406). The assay is described as follows: SPR. (SPR reads the build-up and loss of mass on a sensor chip optically.)
human eIF4A1, full-length, sequence (P60842 whole entry): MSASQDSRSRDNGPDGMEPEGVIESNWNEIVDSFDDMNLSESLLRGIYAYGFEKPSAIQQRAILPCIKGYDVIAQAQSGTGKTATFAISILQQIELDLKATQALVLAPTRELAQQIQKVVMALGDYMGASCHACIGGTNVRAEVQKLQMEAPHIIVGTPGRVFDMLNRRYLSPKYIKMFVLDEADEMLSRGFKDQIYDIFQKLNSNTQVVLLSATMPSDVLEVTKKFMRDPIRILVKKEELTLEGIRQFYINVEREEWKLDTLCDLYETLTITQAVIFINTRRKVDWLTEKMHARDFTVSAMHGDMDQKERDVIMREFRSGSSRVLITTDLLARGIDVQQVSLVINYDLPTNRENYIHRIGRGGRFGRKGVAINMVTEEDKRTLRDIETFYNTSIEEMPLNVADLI

B1: human eIF4H isoform 2 (natural protein)
chain: not shown
B1: the binding result is “binds”.
